{
  "source": "paper PMC8867190",
  "about": "“Ultrasensitive DNA‐Biomacromolecule Sensor for the Detection Application of Clinical Cancer Samples”",
  "binders": {"B1": {"name": "Nucleolin aptamer (ssDNA)", "DNA": "GGTGGTGGTGGTTGTGGTGGTGGTGGTTTTTT"}, "B2": {"name": "LH aptamer (structured_DNA)", "DNA": "TATGGTATGCTGTGTGGTATGGGGTGGCGTGCTCT"}, "B3": {"name": "NGAL aptamer (ssDNA)", "DNA": "AGCAGCACAGAGGTCAGATGGCGCTGGATAGCAAGATCACGTTATCATCGTAAACCCTATGCGTGCTACCGTGAA"}},
  "key": {"Nucleolin (NCL)": {"biological_target": "Nucleolin (NCL) (UniProt P19338 2-710)", "sequence (P19338 2-710)": "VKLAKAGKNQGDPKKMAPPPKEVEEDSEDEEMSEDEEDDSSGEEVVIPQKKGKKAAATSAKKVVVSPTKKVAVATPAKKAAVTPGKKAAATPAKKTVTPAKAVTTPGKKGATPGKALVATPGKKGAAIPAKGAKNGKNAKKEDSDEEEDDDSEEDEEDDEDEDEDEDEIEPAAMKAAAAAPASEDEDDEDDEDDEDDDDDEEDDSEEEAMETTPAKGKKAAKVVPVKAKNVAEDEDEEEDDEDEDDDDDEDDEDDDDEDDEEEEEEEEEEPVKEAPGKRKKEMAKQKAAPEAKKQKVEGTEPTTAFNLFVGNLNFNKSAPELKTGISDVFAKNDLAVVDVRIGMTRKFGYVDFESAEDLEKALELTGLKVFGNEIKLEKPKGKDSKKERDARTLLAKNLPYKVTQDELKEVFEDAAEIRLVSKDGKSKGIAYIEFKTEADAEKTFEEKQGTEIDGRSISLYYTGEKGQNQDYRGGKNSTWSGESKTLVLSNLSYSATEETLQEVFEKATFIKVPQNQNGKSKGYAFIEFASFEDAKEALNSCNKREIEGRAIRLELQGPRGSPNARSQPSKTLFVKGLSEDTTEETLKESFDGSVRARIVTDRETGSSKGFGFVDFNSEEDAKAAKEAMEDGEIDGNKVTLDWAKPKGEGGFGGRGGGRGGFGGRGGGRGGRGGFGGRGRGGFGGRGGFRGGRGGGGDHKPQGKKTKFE", "assay": "electrochemical strand displacement (SWV); 100 nM NCL; signal gain 357.19%; 10 mM phosphate buffer, 1 M NaCl, pH 7.4, room temperature; 30 nM aptamer/signal duplex (prepared in 20 mM Tris, 50 mM MgCl2, pH 8.0, diluted 60 uL into 1940 uL PBS)", "conditions": "protein: commercial; assayed prehybridized with NCL-SP S10 (3'-MB), displaced by target; printed S10 only partly complementary"}, "Luteinizing hormone (LH)": {"biological_target": "Luteinizing hormone (LH) (UniProt P01215;P01229 25-116;21-141)", "sequence (P01215 25-116, chain 1 of 2)": "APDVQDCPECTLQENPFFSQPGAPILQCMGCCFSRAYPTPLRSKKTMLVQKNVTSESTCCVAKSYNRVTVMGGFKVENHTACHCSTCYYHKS", "sequence (P01229 21-141, chain 2 of 2)": "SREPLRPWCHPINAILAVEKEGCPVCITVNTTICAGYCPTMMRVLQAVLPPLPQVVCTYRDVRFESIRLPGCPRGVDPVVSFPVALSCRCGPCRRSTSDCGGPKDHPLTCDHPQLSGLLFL", "assay": "electrochemical strand displacement (SWV); 10 pM-10 uM LH; detection limit 10 pM (not a Kd); displaces signal probe; 10 mM phosphate buffer, 1 M NaCl, pH 7.4, room temperature; 30 nM aptamer/signal duplex (prepared in 20 mM Tris, 50 mM MgCl2, pH 8.0, diluted 60 uL into 1940 uL PBS)", "conditions": "protein: commercial; copies: 1;1; assayed prehybridized 1:1 with signal probe S3 (3'-MB), complementary to aptamer nt 1-15; S3 is displaced by target; G-quadruplex predicted"}, "[1]": {"biological_target": "Neutrophil gelatinase-associated lipocalin (NGAL) (UniProt P80188 21-198)", "sequence (P80188 21-198)": "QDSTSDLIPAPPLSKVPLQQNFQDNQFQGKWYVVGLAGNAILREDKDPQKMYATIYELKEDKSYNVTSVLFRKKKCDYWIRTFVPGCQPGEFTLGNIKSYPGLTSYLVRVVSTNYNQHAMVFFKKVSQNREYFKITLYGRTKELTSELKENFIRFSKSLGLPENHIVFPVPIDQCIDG", "assay": "electrochemical strand displacement (SWV); 100 nM NGAL; signal gain 200.85%; 10 mM phosphate buffer, 1 M NaCl, pH 7.4, room temperature; 30 nM aptamer/signal duplex (prepared in 20 mM Tris, 50 mM MgCl2, pH 8.0, diluted 60 uL into 1940 uL PBS)", "conditions": "protein: commercial; assayed prehybridized with NGAL-SP S7 (3'-MB), displaced by target; printed S7 only partly complementary"}},
  "data": [
    {"binder": "B1", "values": [
      {"measurement": "binding result", "setting": "Nucleolin (NCL)", "result": "binds"}
    ]},
    {"binder": "B2", "values": [
      {"measurement": "binding result", "setting": "Luteinizing hormone (LH)", "result": "binds"}
    ]},
    {"binder": "B3", "values": [
      {"measurement": "binding result", "setting": "[1]", "result": "binds"}
    ]}
  ]
}
